In US20220155286:

Experiments:
[1] = biological target: MTH1-3aa-S-tag fusion protein
[2] = biological target: BCL6 (B-Cell Lymphoma 6) S-Peptide micro-tag construct
[3] = biological target: MTH1-S-tag fusion protein (no linker between MTH1 and the S-tag peptide)
[4] = biological target: MTH1-10aa-S-tag fusion protein

B1: His tagged RNase donor protein (S protein) (protein)
chain: MSSSNYCNQMMKSRNLTKDRCKPVNTFVHESLADVQAVCSQKNVACKNGQTNCYQSYSTMSITDCRETGSSKYPNCAYKTTQANKHIIVACEGNPYVPVHFDASVHHHHHH
S protein concentration at which the fluorescent signal starts to saturate [1]: S protein concentration started to saturate signal at about 1-2 ng/ul S protein
fluorescence increase (RLU change per minute) [1]: detected fluorescence increase that was directly proportional to the amount of micro-tagged protein in the reaction
fluorescent signal (cleavage of the FRET substrate by complemented RNase S), 50 ug lysate, thermal gradient [1]: there was no significant effect of spacer length on fluorescent signal
kinetic trace of the S-tag (Micro-tag) fluorescence signal over 20 minutes [1]: A kinetic trace of the development of the S-tag (Micro-tag) fluorescence signal over the course of 20 minutes
fluorescence signal (RLU/min) after heat challenge [2]: the micro-tag construct was denatured in the heat challenge and there was less micro-tag available for enzyme complementation resulting in lower fluorescence signal
S protein concentration at which the fluorescent signal starts to saturate [3]: S protein concentration started to saturate signal at about 1-2 ng/ul S protein
fluorescent signal (cleavage of the FRET substrate by complemented RNase S), 50 ug lysate, thermal gradient [3]: there was no significant effect of spacer length on fluorescent signal
S protein concentration at which the fluorescent signal starts to saturate [4]: S protein concentration started to saturate signal at about 1-2 ng/ul S protein
fluorescent signal (cleavage of the FRET substrate by complemented RNase S), 50 ug lysate, thermal gradient [4]: there was no significant effect of spacer length on fluorescent signal
